Source: patent publication US20250290928A1, “METHOD, KIT AND DEVICE FOR DETECTING EXTRACELLULAR VESICLES” (priority 2022, published 2025)
*: point of attachment. 5FAM = O=C1OC2(c3ccc(O)cc3Oc3cc(O)ccc32)c2ccc(C(=O)*)cc21; TQ2 = quencher

How the values were obtained:
Format in all cases: biochemical
[1] = molecular target: T1, MMP14 in the A549-derived extracellular vesicles (Homo sapiens, UniProt P50281); experiment: Evaluation of MMP14 activity of A549-derived extracellular vesicles with 96-well plate; settings: Example 10, buffer (3), reporter 5 μM, 37° C.
T1 construct: host or cells: A549 (purified exosomes)
Protocol: The MMP14 activity was evaluated with a 96-well plate (manufactured by Thermo Fisher Scientific Inc., model number: 137101). A fluorescence intensity was measured with a fluorescence plate reader (Synergy MX, manufactured by BioTek Instruments, Inc.) at […] every 5 min for 1 hour. For measurement wavelengths, an excitation wavelength of 485±20 nm and a fluorescence wavelength of 528±20 nm were used.
With regard to the COLO201-derived extracellular vesicles, the concentration of the solution was set to x1/10, and 3-fold serial dilution was performed to prepare standard samples with three concentrations.
50 μL of the MMP14 detection solution was added to 50 μL of each of the samples, a reaction was performed at 37° C., and MMP14 activity was evaluated.
(§1) The concentration of the solution is 20 μg/mL. […] The concentration of the solution was set to x1, and 10-fold serial dilution was performed to prepare standard samples with five concentrations.
(§2) The concentration of the solution is 10 μg/mL.
Evaluation was performed in the same manner as in Example 1 except that the reaction temperature was set to 23° C. ΔRFU was calculated by subtracting the measured value of the sample for BG measurement from the measured value of each of the samples.

[2] = molecular target: T1, MMP14 in the A549-derived extracellular vesicles; experiment: Digital detection of A549-derived extracellular vesicles through MMP14 activity in wells (Simoa Discs); settings: for Expected value λ / Number of positives / Positive ratio: 5 h
Protocol: as §1, §2

[3] = molecular target: T2, MMP14 in the MDA-MB-231-derived extracellular vesicles (Homo sapiens, UniProt P50281); experiment: Digital detection of MDA-MB-231-derived extracellular vesicles through MMP14 activity in wells (microcompartments)
T2 construct: in terms of intact MMP14 with a molecular weight of 70 kDa
Method in brief: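 MDA-MB-231 extracellular-vesicle samples were mixed 1:1 with MMP14 detection solution. The reaction mix was sealed under fluorinated oil in 50 fL microwells (239,000-well array), giving digital single-well readout of MMP14 activity. Standard samples were prepared by serial dilution, and bulk MMP14 activity was also measured in 96-well format.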

[4] = Example 27, 23° C., EV 0 (free of extracellular vesicles)
[5] = Example 27, 23° C., EV 0.01 a.u.
[6] = Example 27, 23° C., EV 0.1 a.u.
[7] = Example 27, reporter 10 μM, 23° C., EV 1 a.u. (x1=5 μg/mL)
[8] = Example 18, 78.5 fL wells, EV 3.3 μg/mL, reporter 5 μM, 37° C., 3 hours, oil AE-3000 and Y25
[9] = Example 18, 78.5 fL wells, EV 3.3 μg/mL, reporter 5 μM, 37° C., 3 hours, oil Simoa
[10] = Example 19, 37° C., 3 h, EV 0.0001 a.u. (x1=10 μg/mL)
[11] = Example 19, 37° C., 3 h, EV 0.001 a.u. (x1=10 μg/mL)
[12] = Example 19, 37° C., 3 h, EV 0.01 a.u. (x1=10 μg/mL)
[13] = Example 19, 37° C., 3 h, EV 0.1 a.u. (x1=10 μg/mL)
[14] = Example 19, 37° C., 3 h, EV 1 a.u. (x1=10 μg/mL)
[15] = Example 19, 37° C., 7 h, EV 0.0001 a.u. (x1=10 μg/mL)
[16] = Example 19, 37° C., 7 h, EV 0.001 a.u. (x1=10 μg/mL)
[17] = Example 19, 37° C., 7 h, EV 0.01 a.u. (x1=10 μg/mL)
[18] = Example 19, 37° C., 7 h, EV 0.1 a.u. (x1=10 μg/mL)
[19] = Example 19, 37° C., 7 h, EV 1 a.u. (x1=10 μg/mL)
[20] = Example 22, buffer (2), 37° C., 1 h, EV 0 (free of extracellular vesicles)
[21] = Example 22, buffer (2), 37° C., 1 h, EV 0.111 a.u.
[22] = Example 22, buffer (2), 37° C., 1 h, EV 0.333 a.u.
[23] = Example 22, buffer (2), 37° C., 1 h, EV 1 a.u. (x1=10 μg/mL)
[24] = Example 22, buffer (2), 37° C., 2 h, EV 0 (free of extracellular vesicles)
[25] = Example 22, buffer (2), 37° C., 2 h, EV 0.111 a.u.
[26] = Example 22, buffer (2), 37° C., 2 h, EV 0.333 a.u.
[27] = Example 22, buffer (2), 37° C., 2 h, EV 1 a.u. (x1=10 μg/mL)

Substance: [5-FAM]GGPLGLAGGK(TQ2)[OH] (5FAM-GGPLGLAGGK(TQ2)-OH) [Custom #2]
- fluorescence intensity at the same extracellular vesicle concentration [1]: higher than the fluorescence intensity from Custom #1
- Extracellular vesicle concentration ([2]; Example 27): 1.1×10^9 /μg of protein
- Expected value λ [2, 4]: 0.000023
- Number of positives [2, 4]: 2
- Positive ratio [2, 4]: 0.000023
- Expected value λ [2, 5]: 0.004117
- Number of positives [2, 5]: 357
- Positive ratio [2, 5]: 0.004109
- Expected value λ [2, 6]: 0.03235
- Number of positives [2, 6]: 2,766
- Positive ratio [2, 6]: 0.03184
- λ at x1 in the approximation of FIG. 58 ([2]; Example 27, 5 h): 0.2767
- concentration of the extracellular vesicles that can be detected based on the MMP14 activity ([2]; Example 27, reaction solution 5 μg of protein/mL, 50 fL): 5.5e+09 mL⁻¹
- Expected value λ [2, 7]: 0.2767
- Number of positives [2, 7]: 20,982
- Positive ratio [2, 7]: 0.2417
- Expected value λ [3, 8]: 0.235
- Number of positives [3, 8]: 3,094
- Positive ratio [3, 8]: 0.21
- Expected value λ [3, 9]: 0.188
- Number of positives [3, 9]: 2,529
- Positive ratio [3, 9]: 0.171
- Extracellular vesicle concentration ([3]; Example 18, oil AE-3000 and Y25): 9.1×10^8 /μg of protein
- Extracellular vesicle concentration ([3]; Example 18, oil AE-3000 and Y25, reaction solution 3.3 μg of protein/mL): 3e+09 mL⁻¹
- Extracellular vesicle concentration ([3]; Example 18, oil Simoa): 7.3×10^8 /μg of protein
- Extracellular vesicle concentration ([3]; Example 18, oil Simoa, reaction solution 3.3 μg of protein/mL): 2.4e+09 mL⁻¹
- Expected value λ [3, 10]: 0.000138
- Number of positives [3, 10]: 4
- Positive ratio [3, 10]: 0.000138
- Expected value λ [3, 11]: 0.0011
- Number of positives [3, 11]: 32
- Positive ratio [3, 11]: 0.0011
- Expected value λ [3, 12]: 0.00915
- Number of positives [3, 12]: 264
- Positive ratio [3, 12]: 0.00911
- Expected value λ [3, 13]: 0.0827
- Number of positives [3, 13]: 2,305
- Positive ratio [3, 13]: 0.0794
- Expected value λ [3, 14]: 0.717
- Number of positives [3, 14]: 14,539
- Positive ratio [3, 14]: 0.512
- Expected value λ [3, 15]: 0.000104
- Number of positives [3, 15]: 3
- Positive ratio [3, 15]: 0.000104
- Expected value λ [3, 16]: 0.000828
- Number of positives [3, 16]: 24
- Positive ratio [3, 16]: 0.000828
- Expected value λ [3, 17]: 0.0092
- Number of positives [3, 17]: 263
- Positive ratio [3, 17]: 0.00916
- Expected value λ [3, 18]: 0.0929
- Number of positives [3, 18]: 2,571
- Positive ratio [3, 18]: 0.0887
- Expected value λ [3, 19]: 2.33
- Number of positives [3, 19]: 26,093
- Positive ratio [3, 19]: 0.902
- Extracellular vesicle concentration ([3]; Example 19, 3 hours): 1.3×10^9 /μg of protein
- Extracellular vesicle concentration ([3]; Example 19, 3 hours, reaction solution 10 μg of protein/mL, 50 fL): 1.3e+10 mL⁻¹
- extracellular vesicles in which MMP14 activity can be detected, contained in 1 μL of the extracellular vesicles (50 μg of protein in 50 μL of PBS) ([3]; Example 19, 7 hours): 1.8×10^9
- Extracellular vesicle concentration ([3]; Example 19, 7 hours, reaction solution 10 μg of protein/mL, 50 fL): 1.8e+10 mL⁻¹
- λ at x1 from the approximation ([3]; Example 19, reaction time of 3 hours): 0.6727
- λ at x1 from the approximation ([3]; Example 19, reaction time of 7 hours): 0.8756
- expected value λ at x1 (power approximation) ([3]; Example 22, after 1 hour): 0.5098
- expected value λ at x1 (power approximation) ([3]; Example 22, after 2 hours): 0.7649
- Expected value λ [3, 20]: 0
- Number of positives [3, 20]: 0
- Positive ratio [3, 20]: 0
- Expected value λ [3, 21]: 0.0648
- Number of positives [3, 21]: 1,819
- Positive ratio [3, 21]: 0.0627
- Expected value λ [3, 22]: 0.193
- Number of positives [3, 22]: 5,094
- Positive ratio [3, 22]: 0.176
- Expected value λ [3, 23]: 0.497
- Number of positives [3, 23]: 11,360
- Positive ratio [3, 23]: 0.392
- Expected value λ [3, 24]: 0
- Number of positives [3, 24]: 0
- Positive ratio [3, 24]: 0
- Expected value λ [3, 25]: 0.0988
- Number of positives [3, 25]: 2,727
- Positive ratio [3, 25]: 0.0941
- Expected value λ [3, 26]: 0.267
- Number of positives [3, 26]: 6,788
- Positive ratio [3, 26]: 0.234
- Expected value λ [3, 27]: 0.774
- Number of positives [3, 27]: 15,608
- Positive ratio [3, 27]: 0.539
- extracellular vesicle concentration at which MMP14 activity was able to be detected in the microcompartments ([3]; Simoa Discs, buffer (4), reporter 5 μM, 37° C.): ≥ 1 ng/mL
